For one test, the target named is T1, transferrin receptor (Cricetulus griseus, UniProt Q07891).
T1 construct: present endogenously in membrane-coated particles derived from CHO cell membranes; endogenous in cells; host or cells: CHO cell membranes deposited on silica microspheres
Nature of the test: Ligand binding and displacement assay on membrane-coated particles (fluorescence microscopy). Also noted: species or system Chinese Hamster. How it is done: (§1) The binding of transferrin to its receptor was studied for ligand/receptor interactions, present endogenously in membrane-coated particles derived from CHO cell membranes (Example 1). Freshly-prepared membrane-coated particles were resuspended in 1 ml of binding buffer (10 mM Tris-HCl pH 7.4, 100 mM NaCl). Beads were subsequently pelleted and resuspended in 1 ml of blocking buffer (0.1% w/v casein in binding buffer), and incubated at room temperature for 15 minutes with rotation. Beads were pelleted and resuspended in 980 μL of binding buffer. At this time, any inhibitors or antagonists (e.g. excess of unlabeled transferrin) could have been added for a pre-incubation step. ALEXA FLUOR® 488-conjugated human holotransferrin was added to the membrane-coated particles at a final concentration of 10 μg/ml, followed by incubation at room temperature for 15 minutes with rotation. Following the incubation with transferrin, the beads were washed twice with binding buffer in preparation for viewing using fluorescence microscopy (same microscope apparatus as described in Example 1). The accessibility of membrane proteins (in this case the transferrin receptor) to interact with various ligands and test agents (in this case transferrin) is shown by the results (see FIGS. 2A-2E).

Test [1] can be described thus: Labeled ligand binding to bare silica beads (control for non-specific binding). As to conditions: silica beads devoid of membranes; FIG. 2C. Here is the method:
as §1

T1 sequence (Q07891 whole entry): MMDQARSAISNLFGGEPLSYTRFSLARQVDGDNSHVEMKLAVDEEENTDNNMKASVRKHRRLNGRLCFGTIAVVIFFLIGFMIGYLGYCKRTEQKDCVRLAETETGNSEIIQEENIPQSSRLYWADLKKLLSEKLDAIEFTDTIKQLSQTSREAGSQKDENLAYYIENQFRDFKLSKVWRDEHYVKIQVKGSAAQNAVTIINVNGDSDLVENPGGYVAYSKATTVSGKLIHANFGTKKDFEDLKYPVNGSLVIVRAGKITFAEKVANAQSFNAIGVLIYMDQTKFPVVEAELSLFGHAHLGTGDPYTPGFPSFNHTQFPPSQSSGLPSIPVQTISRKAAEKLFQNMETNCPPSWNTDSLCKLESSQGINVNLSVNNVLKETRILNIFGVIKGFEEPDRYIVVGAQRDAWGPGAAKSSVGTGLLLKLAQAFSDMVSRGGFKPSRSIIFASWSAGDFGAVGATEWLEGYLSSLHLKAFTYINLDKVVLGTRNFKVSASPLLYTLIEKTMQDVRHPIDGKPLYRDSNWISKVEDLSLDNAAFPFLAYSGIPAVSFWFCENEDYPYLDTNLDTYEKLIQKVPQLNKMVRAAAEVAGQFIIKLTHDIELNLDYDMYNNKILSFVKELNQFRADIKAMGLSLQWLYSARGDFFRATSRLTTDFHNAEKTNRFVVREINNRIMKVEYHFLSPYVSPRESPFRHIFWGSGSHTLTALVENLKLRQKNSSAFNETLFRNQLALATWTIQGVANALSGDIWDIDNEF

Turning to “fluorescently-labeled transferrin: ALEXA FLUOR® 488-conjugated human holotransferrin, labeled ligand of the transferrin receptor”, in the test with transferrin receptor (endogenously-expressed transferrin receptor, CHO cell membranes on silica beads, 10 μg/ml, room temperature, 15 minutes, FIG. 2A), the “binding of fluorescently-labeled transferrin to the membrane-coated particles” value is “binds efficiently”. Also, the “interaction of fluorescently-labeled transferrin with bare silica” value in test [1] is “does not interact appreciably”. Turning to “unlabeled transferrin: unlabeled transferrin used in excess as competitor of labeled transferrin binding”, in the test with transferrin receptor (100-fold molar excess of unlabeled transferrin, CHO membrane-coated particles, FIG. 2B), the “competition of labeled transferrin binding” value is reported as “readily competed away”.

For the origin of these results see patent publication US8962344B2, “Membrane-coated particles” (Synamem Corporation, priority 2008, dated 2015).
